Measurements taken from publication PMC10542350, “Structural basis of nucleosome deacetylation and DNA linker tightening by Rpd3S histone deacetylase complex” (Cell Research, 2023).

Target: the molecule itself
Assay: cryo-EM structure; purified apo Rpd3S complex; 3D map of 3.5 Å

B1: Rco1 (natural protein, Saccharomyces cerevisiae, UniProt Q04779 1-684, looked up)
chain: MDTSKKDTTRSPSHSNSSSPSSSSLSSSSSKEKKRPKRLSSQNVNYDLKRRKIITSEGIERSFKNEHSNLAVEDNIPEEEPKELLEKDSKGNIIKLNEPSTISEDSKVSVTGLPLNKGPSEKIKRESLWNYRKNLGGQSNNSEMTLVPSKRFTQVPKNFQDLNRNDLKTFLTENMTEESNIRSTIGWNGDIINRTRDREPESDRDNKKLSNIRTKIILSTNATYDSKSKLFGQNSIKSTSNASEKIFRDKNNSTIDFENEDFCSACNQSGSFLCCDTCPKSFHFLCLDPPIDPNNLPKGDWHCNECKFKIFINNSMATLKKIESNFIKQNNNVKIFAKLLFNIDSHNPKQFQLPNYIKETFPAVKTGSRGQYSDENDKIPLTDRQLFNTSYGQSITKLDSYNPDTHIDSNSGKFLICYKCNQTRLGSWSHPENSRLIMTCDYCQTPWHLDCVPRASFKNLGSKWKCPLHSPTKVYKKIHHCQEDNSVNYKVWKKQRLINKKNQLYYEPLQKIGYQNNGNIQIIPTTSHTDYDFNQDFKITQIDENSIKYDFFDKIYKSKMVQKRKLFQFQESLIDKLVSNGSQNGNSEDNMVKDIASLIYFQVSNNDKSSNNKSASKSNNLRKLWDLKELTNVVVPNELDSIQFNDFSSDEIKHLLYLKKIIESKPKEELLKFLNIENPENQSE
notes: Rco1, Saccharomyces cerevisiae; two copies (Rco1A, Rco1B) stand in the Rpd3S complex; also called Rco1A; Rco1B; source: High Five insect cells (baculovirus), co-expressed with the other Rpd3S subunits; purified as part of the complex (streptavidin column, Resource Q, gel filtration); not shown: double StrepII, C-terminal, kept
binding result: binds
